From patent US8617548B2 (priority 2006, dated 2013) come the findings set out here.

One data set has as its system B. anthracis. Also noted: species or system New Zealand White (NZW) rabbits. Conditions: rabbit, in vivo.
For data set [1] the following is noted: cynomolgus monkey, in vivo.

Where two headings read alike, the source gives them in different places.

With `C[C@H]1COc2c(N3CCN(C)CC3)c(F)cc3c(=O)c(C(=O)O)cn1c23` [Levofloxacin, levofloxacin, reference compound], in the data set with B. anthracis, the “Blood sample, B. anthracis positive culture, Study Day 34 (end of study)” value (“Blood sample … (end of study)” for short) is on record as 0/4; the “Blood sample, B. anthracis positive culture, moribund euthanized or found dead” value is recorded as 8/8; the “Tissue (spleen) sample, B. anthracis positive culture, Study Day 34 (end of study)” value (“Tissue (spleen) sample … (end of study)” below) is listed as 0/4; the “Tissue (spleen) sample, B. anthracis positive culture, moribund euthanized or found dead” value is 7/8.

B1: ETI-204 (antibody, chains of the INN, looked up, V domains shown)
VH: QVQLQQSGPELKKPGASVKVSCKDSGYAFSSSWMNWVRQAPGQGLEWIGRIYPGDGDTNYNGKFQGRVTITADKSSSTAYMELSSLRSEDTAVYFCARSGLLRYAMDYWGQGTLVTVSS
VL: DIQMTQSPSSLSASVGDRVTITCRASQDIRNYLNWYQQKPGKAVKLLIYYTSRLLPGVPSRFSGSGSGTDYSLTISSQEQEDIGTYFCQQGNTLPWTFGQGTKVEIR
Consider B1, for which, in the data set with B. anthracis, the “Blood sample … (end of study)” value is 0/4 and the “Tissue (spleen) sample … (end of study)” value is 0/4. Moreover, in the data set with B. anthracis (iv), the “Blood sample … (end of study)” value is given as 0/4 and the “Tissue (spleen) sample … (end of study)” value is listed as 0/4. In addition, in data set [1], the “bioavailability of IM anti-PA as compared to IV administration” value came out at 83%, the “clearance (in words)” value is listed as “lower clearance” and the “volume of distribution at a steady-state (in words)” value is “small volume of distribution”. For the same molecule, the “AUC (0-inf) dose dependency (in words)” value in data set [1] (im, 10 mg/kg) is reported as “linear by dose”.
